Consider four molecules from US20190353661A1.

The target in assay [1] is T1, Dust mite allergen Der p 2 (dust mite (Dermatophagoides pteronyssinus)) (UniProt P49278).
T1 sequence (looked up): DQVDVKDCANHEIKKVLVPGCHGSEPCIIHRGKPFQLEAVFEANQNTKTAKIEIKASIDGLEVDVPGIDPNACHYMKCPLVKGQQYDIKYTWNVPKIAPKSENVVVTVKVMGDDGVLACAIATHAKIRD
Description: direct ELISA, Der p2 coated at 5 µg/mL, two-fold dilutions of IgE, anti-human IgE secondary, OD 450 nm.

The target in assay [2] is Helminth lysate. Put plainly: ELISA on helminth lysate; (++) 10-100 x background.
Assay [3] addresses Helminth lysate. Put plainly: direct fluorescent ELISA on helminth lysate.
The target of assay [4] is Helminth lysate. Put plainly: ELISA on helminth lysate; (+++) >100 x background.

B1: Human IgE mAb 2G1 (antibody)
VH: EFQLVESGGGLIQPGGSLRLSCAGSGFTVTTNYMAWVRQAPGKGLEWVSTIYSAGSTFYADSVKGRFTISGDNSKNTLYLQMGSLRAEDTAVYYCARENPAQDAFDIWAKDTMVTVSSASF
VL: EFSYELTQPLSVSVALGQTARITCGGNNIGSKNVHWYQQKPGLAPVLVIYRDSNRPSGIPARFSGSSSGNTATLTISSAQAGDEADYYCHVWDTSTVVFGGGTKLTVLSLPKAAPSVTLFPPSSEELQANKATLVCLISDFYPGAVTVAWKADSSPVKAGVETTTPSKQSNNKYAASSYLSLTPEQWKSHKSYSCQVTHEGSTVEKTVAPTECS
Turning to B1, the EC50 in assay [1] was 7.1 ng/mL.

B2: Human IgE mAb 1A5 (antibody, V domains shown)
VH: EVQLVESGGGVVQPGRSLRLSCAGSGFTFSTYVMHWVRQAPGKGLEWVAVISYDGTNKYYADSMKGRFTISRDNSKNTLYLQLNRLRAEDTAVYYCAKTMDDSSGYYCPDYW
VL: SSELTQDPAVSVALGQTVKITCQGDSLRNYFANWYQQKPGQAPVLVIYGQNNRPSGIPDRFSGSTSGNTGSLTITGAQAEDEADYYCNSRDSSGNHLYVFG
On to B2, for which the fold over background in the assay with Helminth lysate [2] lay in the range of 10 to 100 fold.

B3: Human IgE mAb 11H12 (antibody, V domains shown)
VH: QVQLVESGGDLVTPGGSLRLSCAASGFAFSGYYMSWIRQAPGKGLEWISYINSNGLTISYADSVKGRFTVSRDNAKNSLFLQMSSLRAEDTAIYYCARDWGTTLVTFDLWGQGTLVTVSS
VL: QPVLTQSSSASASMGSSAKLTCTLSSGHRGYNIAWLQQHPGKAPLYLTNLEGSDSYKNDRLTVSSSGADRYLTISNLQPEDEATYYCFTWDSDSRVFGGGTHLTVL
On to B3, for which, in the assay with Helminth lysate [3], the RFU was 1000 RFU and the fold over background (times background) was determined as 10. In the assay with Helminth lysate [2], this molecule showed a fold over background of 10 to 100 fold.

B4: Human IgE mAb 7G12 (antibody, V domains shown)
VH: QVHLVQSGVDVKKPGASVKLSCKTSGYTFTNYGITWVRQAPGQGLEWMGWISTYDGATNYSQNLQGRIIMTTDTSKRTAYLQMRSLRSDDTAVYYCARGRDSPDHWGQGTLVTVSS
VL: DIQMTQSPSTLSASVGDRVTITCRASQSINRWLAWYQQKPGTAPKLLIFKASTLDSGVPARFSGTGSETEFSLTINSLQPDDFATYYCQQYDHFPHTFGPGTKLDIK
B4 showed an RFU in the assay with Helminth lysate [3] of 40000 RFU. The fold over background with Helminth lysate [4] was > 100 fold.
